Experiment: yeast display, Sf9 membrane polyspecificity reagent, FACS + sequencing; frameworks hold sequencing errors
How it was run: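 Polyreactivity labels are assigned by the sorting gate from which each nanobody was recovered. The gates were low and high (top ~1%), set on anti-HA fluorescence for expression and streptavidin fluorescence for reagent binding. Before sorting, galactose-induced (36–48 hours) yeast display cells were stained for 1 hour at 4 °C with 10% biotinylated, detergent-solubilized Sf9 membrane reagent.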

| Sequence | polyreactivity (PSR sort gate) |
| --- | --- |
| QVQLVESGGGLVQAGGSLRLSCAASGRTFYDNAMGWYRQAPGKERELVAVISTSGARTYYADSVKGRFTISRDNAKNTVYLQMNSLKPEDTAVYYCAAGPALWQAYRMYYWGQGTQVTVSS | high polyreactivity |
| QVQLVESGGGLVQAGGSLRLSCAASGRTFYDYAKGWYRQAPGKERELVASITYYADSVKGRFTISRDNAKNTVYLQMNSLKPEDTSVYYCAKDLYSNDLYRRYDYWGQGTQVTVSS | low polyreactivity |
| QVQLVESGGGLVQAGGSLRLSCAASGRTFYDYAMGWYRQAPGKERELVAGIRWSGGSTYYADSVKGRFTISRDNAKNTVFLQMNSLKPEDTAVYYCAADWFAGVAADVEYDYWGQGTQVTVSS | low polyreactivity |
| QVQLVESGGGLVQAGGSLRLSCAASGRTFYEYAMGWYRQAPGKERELVAAITRSGGSTYYADSVKGRFTISRDNAKNTVYLQMNSLKPEDTAVYYCAADGIKGGVEYDYWGQGTQVTVSS | high polyreactivity |
| QVQLVESGGGLVQAGGSLRLSCAASGRTFYFYTMGWYRQAPGKERELVAAITLSGVSTYYADSVKGRFTISRDNAKITVYLQMNSLKPEDTAVYYCNAVYIRPGYRRYDYWGQGTQVTVSS | high polyreactivity |
| QVQLVESGGGLVQAGGSLRLSCAASGRTFYGNAMGWYRQAPGKERELVAAINYSGGRTFYADSVKGRFTISRDNAKNTVYLQMNSLKPEDTAVYYCAAQDTYYGLFSYWIPWSGYWGQGTQVTVSS | high polyreactivity |
| QVQLVESGGGLVQAGGSLRLSCAASGRTFYGNAMGWYRQAPGKERELVAAITTGGGNTYYADSVKGRFTISRDNAKNTVYLQMNSLKPEDTAVYYCAKCYRAYYWGFNYWGQGTQVTVSS | high polyreactivity |
| QVQLVESGGGLVQAGGSLRLSCAASGRTFYGYAMGWYIQAPGKERELVASISYSGGNTYYADSVKGRFTISRDNAKNTVYLQMNSLKPEDTAVYYCAAKARRPYSYHPYDYWGLGTQVTVSS | high polyreactivity |
| QVQLVESGGGLVQAGGSLRLSCAASGRTFYGYAMGWYRQAPGKERELVAAISSDTGGTDDTYYADSVKGRFTISRDNAKNTVYLQMNSLKPEDTAVYYCAAETEQGIIVTGLAYDYWGQGTQVTVSS | low polyreactivity |
| QVQLVESGGGLVQAGGSLRLSCAASGRTFYGYAMGWYRQAPGKERELVAAISSNNGRTYYADSVKGRFTISRDNAKNTVYLQMNSLKPEDTAVYYCAAEAVSILWRDYDYWGQGTQVTVSS | low polyreactivity |
| QVQLVESGGGLVQAGGSLRLSCAASGRTFYGYAMGWYRQAPGKERELVAAISVSGGSTYYADSVKGRFTISRDNAKNTVYLQMNSLKPEDTAVYYCATKGLFTNSPLYVSAYDYWGQGTQVTVSS | low polyreactivity |
| QVQLVESGGGLVQAGGSLRLSCAASGRTFYGYAMGWYRQAPGKERELVASISRDGSTNYADSVKGRFTISRDNAKNTVYLQMNSLKPEDTAVYYCAADWVYYRYWPYVGYDYWGQGTQVTVSS | low polyreactivity |
| QVQLVESGGGLVQAGGSLRLSCAASGRTFYGYAMGWYRQAPGKERELVATISGSGASTYYADSVKGRFTISRDNAKNTVYLQMNSLKPEVTAVYYFAARYVTNRHSRYYYWGQGTQVTVSS | high polyreactivity |
| QVQLVESGGGLVQAGGSLRLSCAASGRTFYGYGMGWYRQAAGKEREFVAAISYSGGSTYYADSVKGRFTISRDNAKNTVYLQMNSLKPEDTAVYYCAARNRGSGFYYWGQGTQVTVSS | high polyreactivity |
| QVQLVESGGGLVQAGGSLRLSCAASGRTFYGYVMGWYRQAPGQERELVAAISRSVGSTYYADSVKGRFTISRDNAKNTVYLQMNSLKPEDTAVYYCATSVYGGVDYWGQGTQVTVSS | high polyreactivity |
| QVQLVESGGGLVQAGGSLRLSCAASGRTFYINAMGWYRQAPGKERELVAGINSRGGSTYADSVKGRFTISRDNAKNTVYLQMNSLNPEDTAVYYCNARRKYLGYNYWGQGTQVTVSS | high polyreactivity |
| QVQLVESGGGLVQAGGSLRLSCAASGRTFYINAMGWYRQAPGKERELVATITRSGGSTYYADSVKGRFTISRDNAKNTVYLQMNSLKPEDTAVYYCAAGGGYYRYRDYDYWGQGTQVTVSS | high polyreactivity |
| QVQLVESGGGLVQAGGSLRLSCAASGRTFYIYAMGWYRQAPGKERELVAAITSVGSTNYADSVKGRFTISRDNAKNTVYLQMNSLKQEVTAVYYCAAESTEGTSGDYDYWGQGTQVTVSS | low polyreactivity |
| QVQLVESGGGLVQAGGSLRLSCAASGRTFYIYAMGWYRQAPGNERELVADISSSDDSTYYADSEKGRFTISRDNAKNTVYLQMNSLKPEDTAVYYCAAELYYFFDEHYYWGQGTQVTVSS | low polyreactivity |
| QVQLVESGGGLVQAGGSLRLSCAASGRTFYKNAMGWYRQAPGKEREFVASISVSGGRTYYADSVKGRFTISRDNAKNTVYLQMNSLKQEDTAVYYCNARASPLSQRDYWGQGTQVTVSS | low polyreactivity |
| QVQLVESGGGLVQAGGSLRLSCAASGRTFYKNAMGWYRQATGKERELVARISRGGSTNYADSVKGRFTISRDNAKNTVYLQMNSLKPEDTAVYYCAKEYGTHGKTYDYWGQGTQVTVSS | high polyreactivity |

| Sequence | polyreactivity (PSR sort gate) |
| --- | --- |
| QVQLVESGGGLVQAGGSLRLSCAASGRTFYKYAMGWSRQAPGKERELVAVINWSGGRTYADSVKGRFTISRDNAKNTVYLQMNSLKPEDTAVYYCAADRGGLTHRWERNDYWGQGTQVTVSS | low polyreactivity |
| QVQLVESGGGLVQAGGSLRLSCAASGRTFYKYVMVWYRQAPGKERELVAAITRSGGRTYYADSVKGRFTISRDNAKNTVYLHMNSLKPEDTAVYYCAAASYSGHGRYDYWGQGTQVTVSS | high polyreactivity |
| QVQLVESGGGLVQAGGSLRLSCAASGRTFYLYAMGWYIQAPGKERELVAGISRSGGSTYYADSVKGRFTISRDNAKNTVYLQMNSLKPEDTAVYYCAAGYYYWGQGTQVTVSS | high polyreactivity |
| QVQLVESGGGLVQAGGSLRLSCAASGRTFYLYTKGWYRQAPGKERELVAAISRGGRTYADSVKGRFTISRDNAKNTVYLQMNSLKPEDTAVDYCNRELTSPRRWHVSRAYDYWGQGTQVTVSS | low polyreactivity |
| QVQLVESGGGLVQAGGSLRLSCAASGRTFYLYTMGWYRQAPGKEREFVAIISRSGASTRYADSVKGRFTISRDNAKNTVYLQMNRLKPEDTAVYYCAAYVGYPYDYWGQGTQVTVSS | high polyreactivity |
| QVQLVESGGGLVQAGGSLRLSCAASGRTFYNNAMGWYRQAPGKERELVAAISWSGGSTFYADSVKGRFTISRDNAKKTVYLQMNSLKPEDTAVYYCAALGRPYGSDYWGQGTQVTVSS | high polyreactivity |
| QVQLVESGGGLVQAGGSLRLSCAASGRTFYNYAMGWYRQAPGKERELVASIRKNGGSTYYADSVKGRFTISRDNAKNTVYLQMNSLKPEDTAVYYCAARYWGISRIFPSKYDYWGQGTQVTVSS | high polyreactivity |
| QVQLVESGGGLVQAGGSLRLSCAASGRTFYPNAMGWSRQAPGKEREVVAAINSGGSTYYADSVKGRFTISRDKAKNTVYLQMNSLKPEDTAVYYCNAERRIAYEYWGQGTQVTVSS | low polyreactivity |
| QVQLVESGGGLVQAGGSLRLSCAASGRTFYPNAMGWSRQAPGQERAFVARISDSGGSTYYADSVKGRFTISRDNAKNTVYLQMNSLKPEDNAVYYCAADYGDPRVNEYDYWGQGTQVTVSS | low polyreactivity |
| QVQLVESGGGLVQAGGSLRLSCAASGRTFYPNTMGWYRQAPGKERELVATITRSGGNTYADSVKGRFTISRDNAKNTVYLQMNSLKREDTAVYYCNADQRRSYWLVSQRYDYWGQGTQVTVSS | low polyreactivity |
| QVQLVESGGGLVQAGGSLRLSCAASGRTFYPYAMGWNRQAPGKERELVAAIRSSGGTTYYADSVKGRFTISRDNAKNTVYLQMNSLKPEDTAFYYCAAYVDRQGGYYWGQGTQVTVSS | high polyreactivity |
| QVQLVESGGGLVQAGGSLRLSCAASGRTFYPYDLGWYRQEPGKERELVAAIRENGGSTYFADSVKGRFTISRDNAKNTVYLQLTSLKPEDNAVYYCAARNTRYWRYEYWGLGTQVTVSS | high polyreactivity |
| QVQLVESGGGLVQAGGSLRLSCAASGRTFYPYVMGWYRQAPGKEREMVAAISYTGGSTYYADSVKGRFTISRDNAKNTVYLQMNSLKPEDTAVYYCNRAKYYSGGYRYHVDYWGQGTQVTVSS | high polyreactivity |
| QVQLVESGGGLVQAGGSLRLSCAASGRTFYQYAMGWYRQAPGKERELVAAISRRGGSTYYADSVKGRFTISRDNAKNTVYLQMNSLKPEDTAVYYCAARVRGKYDYWGQGTQVTVSS | high polyreactivity |
| QVQLVESGGGLVQAGGSLRLSCAASGRTFYQYDMGWYRQAPGKERELVAAIDWSGGSTYYADSVKGRFTISRDNAKNTVYLQMNSLKPEDTAVYYCNKDSHISTAYDYWGQGTQVTVSS | low polyreactivity |
| QVQLVESGGGLVQAGGSLRLSCAASGRTFYQYDMGWYRQAPGKESELVAAIDWSGGSTYYADSVKGRFTISRDYAKITVYLQMNSLKPEDTAVYYCNADAYPHPVVGYDYWGQGTQVTVSS | low polyreactivity |
| QVQLVESGGGLVQAGGSLRLSCAASGRTFYQYTMGWYRQAPGKERELVAAITTSTGNTYYADSVKGRFTISRDNAKNTDYLQMNSLKPEDTAVYYCAADTVWRLDYWGQGTQVTVSS | low polyreactivity |
| QVQLVESGGGLVQAGGSLRLSCAASGRTFYRNAMGWSRPAPGKERELVAAISSDDSTNYADSVKGRFTISRDNAKNTVYLQMNSLKPEDTAVYYCNADYYYGYEYDYWGQGTQVTVSS | low polyreactivity |
| QVQLVESGGGLVQAGGSLRLSCAASGRTFYRNAMGWYRQAPGKERELVAAISNGGSTNYADSVKGRFTISRDNAKNTVYLQMNSLKPEDTAVYYCAKAVIRWRGSGQHGYFWYDYLGQGTQVTVSS | high polyreactivity |
| QVQLVESGGGLVQAGGSLRLSCAASGRTFYRNTMGWYRQAPGKEREFVAAISATAGRTYYADSVKGRFTISRDNAKNTVYLQMNSLKPEDTAVYYCAAVPLRNRWPNSWPALDYWGQGTQVTVSS | high polyreactivity |

Reference: the nanobody polyreactivity screen of Harvey et al. (2022)
